Laboratory results from US6500919B1, “Melanoma associated antigenic polypeptide, epitopes thereof and vaccines against melanoma” (IntroGene B.V., priority 1994, dated 2002).

Legend:
[1] = system: peptide loaded HLA-A2.1+ T2 cells
HLA-A2.1 = target: T1, HLA-A2.1 (Homo sapiens, UniProt P04439, D140Y/D185E/D98H/E176V/E277Q/G131W/G231S/I119V/I121R/I166T/I218V/L300P/L318F/N151K/N90K/P208A/P217A/Q86G/Q94H/R138H/R169H/T345S); test: HLA-A2.1 peptide binding assay (HLA-A2.1 stabilization on processing defective T2 cells, flow cytometry with mAb BB7.2)
T1 construct: HLA-A2.1 stabilization at the cell surface was determined by flow cytometry using mAb BB7.2; endogenous in cells; host or cells: T2 cells (processing defective, HLA-A2.1+)

[2] = target: T2, HLA-A2.1 (on processing defective T2 cells) (human); test: peptide binding assay on processing defective T2 cells
T2 construct: also called MHC HLA-A2.1 molecule

binding to the MHC HLA-A2.1 molecule (HLA-A2.1) | Molecule | also measured
bind | M-L-G-T-H-T-M-E-V (MLGTHTMEV) | 
bind | R-L-M-K-Q-D-F-S-V (RLMKQDFSV) | 

Further lines, the molecule ahead of its results:

Molecule | binding to the MHC HLA-A2.1 molecule (HLA-A2.1) | also measured
CC(C)C[C@H](NC(=O)[C@H](CCCNC(=N)N)NC(=O)[C@H](CC(C)C)NC(=O)[C@@H](NC(=O)[C@H](C)NC(=O)[C@@H](NC(=O)CNC(=O)[C@H](CC(=O)O)NC(=O)[C@H](CC(C)C)NC(=O)[C@@H](N)CC(C)C)[C@@H](C)O)[C@@H](C)O)C(=O)O [L-L-D-G-T-A-T-L-R-L] |  | recognized by anti-melanoma cytotoxic T lymphocytes in the context of HLA-A2.1 [1]: recognized
V-L-P-D-G-Q-V-I-W-V (VLPDGQVIWV) | bind | 
LLDGTATLRL (also called gp100 amino acids 457-466) [gp100 peptide LLDGTATLRL] |  | binding result [2]: binds
